Results from the nanobody polyreactivity screen of Harvey et al. (2022).

test: yeast display, Sf9 membrane polyspecificity reagent, FACS + sequencing; frameworks hold sequencing errors
Outline: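 In a synthetic yeast display library (Saccharomyces cerevisiae BJ5465), nanobody expression was induced with galactose for 36–48 hours. FACS gates were set low and high (top ~1%) using anti-HA fluorescence for expression and streptavidin fluorescence for binding of the Sf9 membrane reagent. Each polyreactivity label is drawn from the gate of origin.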

Sequence	polyreactivity (PSR sort gate)
QVQLVESGGGLVQAGGSLRLSCAASGRIFRDYVMGWYRQAPGKERELVAGITGSVDSTNYADSVKGRFTISRDNAKNTVYLQMNSLKPEDTAVYYCNAEFWRGTYRFGYWGQGTQVTVSS	low polyreactivity
QVQLVESGGGLVQAGGSLRLSCAASGRIFRFYAMGWYRQAPGKDRELVAAISSRGGSTYYADSVTGRFTISRDNAKNTVYLQMNSLKPEDTAVYYCAKRSQKAYKYRDYRFDYWGQGTQVTVSS	high polyreactivity
QVQLVESGGGLVQAGGSLRLSCAASGRIFRGNAMGWYRQAPGKERELVAAISWGGGSTYYAYSVKGRFTISRDNAKNTVYLQMNSLKPEDTAVYYWNKEYVFWRFPNWYTYGYWGQGTQVTLSS	high polyreactivity
QVQLVESGGGLVQAGGSLRLSCAASGRIFRGNVMGWYIQAPGKERELVATITSSARTYYADSVKGRFTISRDNAMITVYLQMNSLKPEDTAVYYCAAKTRWNFYYWGQGTQVSVSS	high polyreactivity
QVQLVESGGGLVQAGGSLRLSCAASGRIFRGNVMGWYRQAPGKERELVAVIRSSSGRTYYADSVKGRFTISRDNAKNTVYLQMNSLKPEDTAVYYCAAKSVWGQGTQVTVSS	high polyreactivity
QVQLVESGGGLVQAGGSLRLSCAASGRIFRGYAMGWYRQAPGKEREFVDAITKNGGSTYYADSVKGRFTISRDNAKNTVYLQMNSLKPEDTAVYYCAVRAWDPYTGKSEYWGQGTQVTVSS	low polyreactivity
QVQLVESGGGLVQAGGSLRLSCAASGRIFRGYAMGWYRQAPGKERELVAAISGGGGSTYYADSVKGRFTISRDNAKNTVYLQMNSLKPEDTAVYYCNALRIRGSKVFEGDYWGQGTQVTVSS	high polyreactivity
QVQLVESGGGLVQAGGSLRLSCAASGRIFRGYAMGWYRQAPGKERELVAAISNGGGTNYADTVKGRFTISRDNAKNTVYLQMNSLKPEDTAVYYCATGFLQNYYKYTSSFRFYYWGQGTQVTVSS	high polyreactivity
QVQLVESGGGLVQAGGSLRLSCAASGRIFRGYAMGWYRQAPGKERELVAAITRGGSTKYADSVKGRFTISRDNAKNTVYLQMNSLKPEDTAVYYCAKDSYPYVPLYRSRSLYGYWGQGTQVTVSS	high polyreactivity
QVQLVESGGGLVQAGGSLRLSCAASGRIFRGYAMGWYRQAPGKERELVATISAIGGSTYADSVKGRFTISRHNAKNTVYLQMNSLKPEDTAVYYCNVRKVYRYQYRFEYWGQGTQVTVSS	high polyreactivity
QVQLVESGGGLVQAGGSLRLSCAASGRIFRGYGMAWYRQAPGKERELVAAISRGGNTDYADSVKGRFTISRDNANNTVYLQMNSLKPEETAVYYCAVGYVSYRKLYLYNSWGQGTQVTVSS	high polyreactivity
QVQLVESGGGLVQAGGSLRLSCAASGRIFRGYTMGGYRQAPGKERELVADITKRGGSTDYADSVKGRFTISRDNAKNTVYLQMNSLKPEDTEVYSCAARGPTFGVDYGYWGQGTQVTGSS	high polyreactivity
QVQLVESGGGLVQAGGSLRLSCAASGRIFRGYVMGWYIQAPGKERELVAAISINGGRTYYADSVKGRFTISRDNAKNTVYLQMNSLKPEDTAVYYCAAEPIYFRGLYYYWGLGTQVTVSS	high polyreactivity
QVQLVESGGGLVQAGGSLRLSCAASGRIFRHNAMGWYRQAPGKERELVDAITSRGGTYNAHSVKGRFTISRDNAKITVFLQMTSLNPEETAVYFCNADEALYSSGNKYDYWGQGTQVSVSS	low polyreactivity
QVQLVESGGGLVQAGGSLRLSCAASGRIFRHYAMGWYRQAPGKERELVAAISGGGGRTYYADSVKGRFTISRDNAKNTVYLQMNSLKPEDTAVYYCAKRPSYAYSRYRKGHDYWGQGTQVTVSS	high polyreactivity
QVQLVESGGGLVQAGGSLRLSCAASGRIFRINGMGWYRQAPGKEREFVAAITSGGGTYYADSVKGRFTISRDNAKNTVYLQMNSLKPEDTAVYYCAAPSYRTRYYYWGQGTQVTVSS	high polyreactivity
QVQLVESGGGLVQAGGSLRLSCAASGRIFRINGMGWYRQAPGKEREFVAAITSGGGTYYADTVKGRFTISRDNAKNTVYLQMNSLKPEDTAVYYCAAPSYRTRYYYWGQGTQVTVSS	high polyreactivity
QVQLVESGGGLVQAGGSLRLSCAASGRIFRIYAMGWNRQAPGKERELVARLTYSGGSTYYADSVKGRFTISRDNAKNTVYLQMNSLKPEDTAVYYCAADWLGYQYGYWGQGTQVTVSS	low polyreactivity
QVQLVESGGGLVQAGGSLRLSCAASGRIFRIYAMGWYRQAPGKERELVASISDRGTRTYYADSVKGRFTISRDNAKNTVYLQMNSLKPEDTAVYYCAASTYTKFHTYYKSQASDYWGQGTQVTVSS	high polyreactivity
QVQLVESGGGLVQAGGSLRLSCAASGRIFRKYAMGWYRQAPGKERELVAAINWSGGSTYYADSVKGRFTISRDNAKNTVYLQMNSLKPEDTAVYYCAARSPKAERDYWGQGTQVTVSS	high polyreactivity
QVQLVESGGGLVQAGGSLRLSCAASGRIFRKYAMGWYRQAPGKERELVAAISGSGGSTTYADSVKGRFTISRDNAKNTVYLQMNSLKPEDTAVYYCAARGYSLYGYPYYYWGQGTQVSVSS	high polyreactivity

Sequence	polyreactivity (PSR sort gate)
QVQLVESGGGLVQAGGSLRLSCAASGRIFRKYAMGWYRQAPGKERELVAGITWRGTSTYYADSVKGRFTISRDNAKNTVYLQMNSLKPEDTAVYYCAAEWKGYYVHDYWGQGTQVTVSS	high polyreactivity
QVQLVESGGGLVQAGGSLRLSCAASGRIFRKYTMGWYRQAPGKERELVAAITWSGGSTYYADSVKGRFTISRDNAKNTVYLQMNSLKPEDTAVYYCAARSIGGYRAVDTYYYWGHGTQVTVSS	high polyreactivity
QVQLVESGGGLVQAGGSLRLSCAASGRIFRKYVMGWYRQAPGKERELVASITTSGDSTYYADSVKGRFTISRDNAKNTVYLQMNSLKPEDTAVYYCAARSYRGRRYDYWGQGTQVTVSS	high polyreactivity
QVQLVESGGGLVQAGGSLRLSCAASGRIFRLYAMGWYRQAPGKEREFVATITWIGGRTYYADSVKGRFTISRDTAKNTVYLQMNSLKPEDTAVYYCAADPGYTYEYWGQGTQVTVSS	low polyreactivity
QVQLVESGGGLVQAGGSLRLSCAASGRIFRLYVMGWYRQAPGKERELVATISSRGGSTYYADSVKGRFTISRDNAKNTVYLQMNSLKPEDTAVYYCAAVSRYRYGYDYWGQGTQVTVSS	high polyreactivity
QVQLVESGGGLVQAGGSLRLSCAASGRIFRPYAMGWYRQAPGKERELVASMSWRGSSTYYADSVKGRFTISRDNAQNTVYLQMNSLKPEDTAVYYCAARRYPTSGYGYWGQGTQVTVSS	high polyreactivity
QVQLVESGGGLVQAGGSLRLSCAASGRIFRPYTMVWSRQAPGKERELVAAINSSGGRTYYADSVKGRFTISRDNAKNTVYLEMNSLKPEDTAVYYCAVGWVFYRASNMNYWGQGTQVTVSS	high polyreactivity
QVQLVESGGGLVQAGGSLRLSCAASGRIFRQKAMGWYRQAPGKERELVASISSGGNTYYADSVKGRFTISRDNAKNNVYLQMNSLKPEDTAVYYCAAAKQRYYRWWTTPGYDYWGQGTQVTVSS	low polyreactivity
QVQLVESGGGLVQAGGSLRLSCAASGRIFRRNAMGWSRQAPGNERELVAAISSSGGRTYYADSVKGRFTISRDNAKNTVYLEMNSLKPEDTAVYYCAARIRTVAHVDYDYWGQGTQVTVSS	high polyreactivity
QVQLVESGGGLVQAGGSLRLSCAASGRIFRRNAMGWYRQAPGKERDLVAAITYSGTRTYYADSVKGRFTISRDNAKITVYLQMNSLKPEDTAVYYCNAGVGYFVGTYYGFLPYDYWGQGTQVTVSS	high polyreactivity
QVQLVESGGGLVQAGGSLRLSCAASGRIFRRNAMGWYRQAPGKEREFVATITSGGSTFYADSVKGRFTISRDNAKNTVYLQMNSLIPEDTAVYYCAAPYYNTPFHTPNYSWGQGTQVTVSS	low polyreactivity
QVQLVESGGGLVQAGGSLRLSCAASGRIFRRNAMGWYRQAPGKERELVAAISTRGSSTYYADSVKGRFTISRDNAKNTVYLQMNSLKPEDTAVYYCAADAYFIYSRYWYDYWGQGTQVTVSS	high polyreactivity
QVQLVESGGGLVQAGGSLRLSCAASGRIFRRNVMGWYRQAPGKERELVAAITGSGSSTYYADSVKGRFTISRDNAKNTVYLQMNSLKPVDTAVYYCATKWRFKLGDYWGQGTQVTVSS	high polyreactivity
QVQLVESGGGLVQAGGSLRLSCAASGRIFRRYAMGWYRQAPGKERELVAAINGRGTTTYYADSVKGRFTISRDNAKNTVYLQMNSLKPEDTAVYYCAAENTIRYDREYDYWGQGNQVTVSS	high polyreactivity
QVQLVESGGGLVQAGGSLRLSCAASGRIFRRYAMGWYRQAPGKERELVAAISSTGGNTYYADSVKGRFTISRDNAKNTVYLQMNSLKPEDTAVYYCATRAFYLRGNGYWGQGTQVTVSS	high polyreactivity
QVQLVESGGGLVQAGGSLRLSCAASGRIFRSNAIGWYRQAPGKERELVSVITWCGGSTYYADSVKGRFTITRDTAKNTVYIQMNSLKPEDTAVYYCAKRRAAVNGRSYYYYWGQGTQVTVSS	high polyreactivity
QVQLVESGGGLVQAGGSLRLSCAASGRIFRSNAMGWYRQAPGKERELVATITSSGGRTYYADSVKGRFTISRDNAKNTVYLQMNSLKPEDTAVYYCNAQQRTRGQKAQWVRDEYWGQGTQVTVSS	low polyreactivity
QVQLVESGGGLVQAGGSLRLSCAASGRIFRSNTMGWYRQAPGKERELVAAITRRGGSTYYADSVKGRFTISRDNAKNTVYLQLNSLKPEDTAVYYCAAVKSYYSEYGYWGQGTQGTVSS	high polyreactivity
QVQLVESGGGLVQAGGSLRLSCAASGRIFRSYAMGWSIQAPGKERELVAAITSGGSTNYADSVKGRFTISRDNAKNTVYLQMNSLKPEDTAVYYCAARWPWYGKLRYYYWGQGTQVTVSS	high polyreactivity
QVQLVESGGGLVQAGGSLRLSCAASGRIFRSYAMGWYRQAPGKERELFAAISYSGGSTYYADSVKGRFTISRDNAKNTVYLQMNSLKPEDTAVYYCAALPGERKYIYYGYDYWGQGTQVTVSS	high polyreactivity
